Measured values published in publication PMC5871715 (2018).

B1: full-length human Draxin AVEXIS prey, wild type [human] / human Netrin-1 WT bait protein (VI+V), AVEXIS [human] (parent complex)
chain 1: GALAPGTPARNLPENHIDLPGPALWTPQASHHRRRGPGKKEWGPGLPSQAQDGAVVTATRQASRLPEAEGLLPEQSPAGLLQDKDLLLGLALPYPEKENRPPGWERTRKRSREHKRRRDRLRLHQGRALVRGPSSLMKKAELSEAQVLDAAMEESSTSLAPTMFFLTTFEAAPATEESLILPVTSLRPQQAQPRSDGEVMPTLDMALFDWTDYEDLKPDGWPSAKKKEKHRGKLSSDGNETSPAEGEPCDHHQDCLPGTCCDLREHLCTPHNRGLNNKCFDDCMCVEGLRCYAKFHRNRRVTRRKGRCVEPETANGDQGSFINV
chain 2: not shown

Variants of: B1
Assay: AVEXIS; average of three repeats; read off a plot
chain 1 F208R gave a response of ~0.021 A486 nm. With chain 1 F208P the response was ~0.037 A486 nm. For chain 1 F208A, the response was ~0.055 A486 nm. With chain 1 L203R the response was ~0.004 A486 nm. In the case of chain 1 L203P, the response is reported as ~0.005 A486 nm. chain 1 L203A gave a response of ~0.004 A486 nm.
